Experimental findings from patent publication US20190247381A1 are described below.

The target in this experiment is FLAG-HA-Atoh1 (Mus musculus (Mouse)) (UniProt P48985). The experiment in a line: IP-MS: immunoprecipitation of Atoh1 and its associated binding partners, excised gel band, mass spectrometry.

TUBA1A (from UniProt Q71U36): the Total peptide is 112 peptides.
The figure for PRPS1 (from UniProt P60891) is 3 peptides; for BCKDHA (from UniProt P12694) it is 5 peptides.
For TUBB2B (from UniProt Q9BVA1) the value was 2 peptides.
The molecule AAMP (from UniProt Q13685) displayed a Total peptide of 1 peptides.
PSMC5 (from UniProt P62195) came in with a Total peptide of 52 peptides.
TUBA1C (from UniProt Q9BQE3) came in with a Total peptide of 7 peptides.
For “CK1ε (CSNK1E), endogenous in 293T cells (from UniProt P49674) (enzyme)” the value was 6 peptides.
For EEF1A1 (from UniProt P68104) the value was 103 peptides; for PDE4B (from UniProt Q07343), 1 peptides; for ENO1 (from UniProt P06733), 62 peptides.
For “CK1δ (CSNK1D), endogenous in 293T cells (from UniProt P48730) (enzyme)” the value was 7 peptides.
Take TUBA4A (from UniProt P68366): the Total peptide came out at 1 peptides.
In turn, PRDX4 (from UniProt Q13162) showed a Total peptide of 1 peptides.
The figure for RBMX (from UniProt P38159) is 65 peptides; for TUBB2A (from UniProt Q13885) it is 159 peptides.
PSMC2 (from UniProt P35998): the Total peptide was 50 peptides.

B1: SSB (protein)
chain: MAENGDNEKMAALEAKICHQIEYYFGDFNLPRDKFLKEQIKLDEGWVPLEIMIKFNRLNRLTTDFNVIVEALSKSKAELMEISEDKTKIRRSPSKPLPEVTDEYKNDVKNRSVYIKGFPTDATLDDIKEWLEDKGQVLNIQMRRTLHKAFKGSIFVVFDSIESAKKFVETPGQKYKETDLLILFKDDYFAKKNEERKQNKVEAKLRAKQEQEAKQKLEEDAEMKSLEEKIGCLLKFSGDLDDQTCREDLHILFSNHGEIKWIDFVRGAKEGIILFKEKAKEALGKAKDANNGNLQLRNKEVTWEVLEGEVEKEALKKIIEDQQESLNKWKSKGRRFKGKGKGNKAAQPGSGKGKVQFQGKKTKFASDDEHDEHDENGATGPVKRAREETDKEEPASKQQKTENGAGDQ
B1 registered a Total peptide of 65 peptides.

B2: SERPINH1 (protein)
chain: AEVKKPAAAAAPGTAEKLSPKAATLAERSAGLAFSLYQAMAKDQAVENILVSPVVVASSLGLVSLGGKATTASQAKAVLSAEQLRDEEVHAGLGELLRSLSNSTARNVTWKLGSRLYGPSSVSFADDFVRSSKQHYNCEHSKINFRDKRSALQSINEWAAQTTDGKLPEVTKDVERTDGALLVNAMFFKPHWDEKFHHKMVDNRGFMVTRSYTVGVMMMHRTGLYNYYDDEKEKLQIVEMPLAHKLSSLIILMPHHVEPLERLEKLLTKEQLKIWMGKMQKKAVAISLPKGVVEVTHDLQKHLAGLGLTEAIDKNKADLSRMSGKKDLYLASVFHATAFELDTDGNPFDQDIYGREELRSPKLFYADHPFIFLVRDTQSGSLLFIGRLVRPKGDKMRDEL
B2 returned a Total peptide of 9 peptides.

B3: ACOX1 (protein)
chain: MNPDLRRERDSASFNPELLTHILDGSPEKTRRRREIENMILNDPDFQHEDLNFLTRSQRYEVAVRKSAIMVKKMREFGIADPDEIMWFKKLHLVNFVEPVGLNYSMFIPTLLNQGTTAQKEKWLLSSKGLQIIGTYAQTEMGHGTHLRGLETTATYDPETQEFILNSPTVTSIKWWPGGLGKTSNHAIVLAQLITKGKCYGLHAFIVPIREIGTHKPLPGITVGDIGPKFGYDEIDNGYLKMDNHRIPRENMLMKYAQVKPDGTYVKPLSNKLTYGTMVFVRSFLVGEAARALSKACTIAIRYSAVRHQSEIKPGEPEPQILDFQTQQYKLFPLLATAYAFQFVGAYMKETYHRINEGIGQGDLSELPELHALTAGLKAFTSWTANTGIEACRMACGGHGYSHCSGLPNIYVNFTPSCTFEGENTVMMLQTARFLMKSYDQVHSGKLVCGMVSYLNDLPSQRIQPQQVAVWPTMVDINSPESLTEAYKLRAARLVEIAAKNLQKEVIHRKSKEVAWNLTSVDLVRASEAHCHYVVVKLFSEKLLKIQDKAIQAVLRSLCLLYSLYGISQNAGDFLQGSIMTEPQITQVNQRVKELLTLIRSDAVALVDAFDFQDVTLGSVLGRYDGNVYENLFEWAKNSPLNKAEVHESYKHLKSLQSKL
Turning to B3, the Total peptide was determined as 5 peptides.

B4: YARS2 (protein)
chain: TLNLSVLLPLGLRKAHSGAQGLLAAQKARGLFKDFFPETGTKIELPELFDRGTASFPQTIYCGFDPTADSLHVGHLLALLGLFHLQRAGHNVIALVGGATARLGDPSGRTKEREALETERVRANARALRLGLEALAANHQQLFTDGRSWGSFTVLDNSAWYQKQHLVDFLAAVGGHFRMGTLLSRQSVQLRLKSPEGMSLAEFFYQVLQAYDFYYLFQRYGCRVQLGGSDQLGNIMSGYEFINKLTGEDVFGITVPLITSTTGAKLGKSAGNAVWLNRDKTSPFELYQFFVRQPDDSVERYLKLFTFLPLPEIDHIMQLHVKEPERRGPQKRLAAEVTKLVHGREGLDSAKRCTQALYHSSIDALEVMSDQELKELFKEAPFSEFFLDPGTSVLDTCRKANAIPDGPRGYRMITEGGVSINHQQVTNPESVLIVGQHILKNGLSLLKIGKRNFYIIKWLQL
B4: the Total peptide stood at 11 peptides.
